For 2 substances, localisation_or_trafficking and expression_or_secretion results are on record in article PMC6399494.

Data set [1] can be described thus: immunoblot of mature LDLR form, HEK293. Particulars: glycan lost; control: DMSO-treated cells. In general terms: In western blotting, separated proteins are transferred to a membrane and probed.
Data set [2] can be described thus: immunoblot, Hepa1c1c7 lysate, normalised to actin. Particulars: glycan gained; control: wild type full-length LDLR.
A short description of data set [3]: cell-surface biotinylation and confocal microscopy, HEK293. Particulars: glycan gained; control: wild type full-length LDLR.

“LDL receptor (LDLR): tunicamycin, WT LDLR”: the localisation_or_trafficking entry in data set [1] was “no change”.
On to LDL receptor (LDLR): D203N, for which the expression_or_secretion result in data set [2] was “no change”. For the same substance, in data set [3], the localisation_or_trafficking entry is on record as “no change”.
